# According to patent US20110229556A1, “LIPID-COATED POLYMER PARTICLES FOR IMMUNE STIMULATION” (Massachusetts Institute of Technology, priority 2010, published 2011):
# Entries after “also recorded” stand apart in the source; their conditions may differ.
# B1: ovalbumin (protein, UniProt P01012 2-386, looked up)
# Ovalbumin: GSIGAASMEFCFDVFKELKVHHANENIFYCPIAIMSALAMVYLGAKDSTRTQINKVVRFDKLPGFGDSIEAQCGTSVNVHSSLRDILNQITKPNDVYSFSLASRLYAEERYPILPEYLQCVKELYRGGLEPINFQTAADQARELINSWVESQTNGIIRNVLQPSSVDSQTAMVLVNAIVFKGLWEKAFKDEDTQAMPFRVTEQESKPVQMMYQIGLFRVASMASEKMKILELPFASGTMSMLVLLPDEVSGLEQLESIINFEKLTEWTSSNVMEERKIKVYLPRMKMEEKYNLTSVLMAMGITDVFSSSANLSGISSAESLKISQAVHAAHAEINEAGREVVGSAEAGVDAASVSEEFRADHPFLFCIKHIATNAVLFFGRCVSP
# notes: model protein antigen ovalbumin dissolved in saline
# B2: SAT(PEG)4-modified OVA: ovalbumin modified with the heterobifunctional cross-linker SAT(PEG)4 for particle coupling (protein, UniProt P01012 2-386, looked up)
# Ovalbumin: B1 Ovalbumin
# modifications: SAT(PEG)4 cross-linker modified
# notes: ovalbumin modified with the heterobifunctional cross-linker SAT(PEG)4 for particle coupling
# Legend:
# [1] = test system: OVA-specific serum IgG; assay: Serum total anti-OVA IgG ELISA after s.c. immunization; assay type: in vivo, BALB/c or C57B1/6 mice
# Procedure: Antibody titer measurements. Total IgG titers from sera were measured using an ELISA by adsorbing OVA to flat-bottom transparent 96-well plates at room temperature overnight, blocking overnight with bovine serum albumin, adding serially-diluted serum (starting from a minimal dilution of 200×) for 2 hr, and then detecting bound OVA-specific IgG antibody using HRP-labeled anti-mouse IgG (Bio-Rad). Plates were washed between each step using 0.05% Tween-20 in PBS. HRP developed with tetramethylbenzidine was measured using a Molecular Devices SpectraMax Microplate Reader. Monoclonal mouse anti-OVA IgG1 (clone OVA-14, Sigma-Aldrich, St. Louis, Mo.) was included as a standard reference in each assay. Endpoint titers were defined as the highest dilution at which immunized serum ELISA signal exceeded the average+2 standard deviations of pre-immune sera analyzed in parallel. To interpret our titer values in more physiological terms, we used OVA-14 as a standard to determine the concentration of OVA-specific IgG as equivalents of this monoclonal antibody.
# [2] = test system: OVA-specific IgG; assay: Avidity of OVA-specific IgG (ELISA with 6M urea wash); assay type: in vivo, BALB/c mice; settings: BALB/c, 10 ng OVA, boost day 21, day 28 sera, 6M urea 10 min
# Procedure: The avidity of IgG responses to immunization was measured using an ELISA analysis of serum binding in the presence of urea using a commonly reported procedure from the literature. Serum titer analysis was conducted in duplicate assay plates until serum adsorption was complete. At this point, one plate was incubated in the presence of 6M urea for 10 min followed by washing and detection of bound IgG on both plates as above. Avidity indices were defined as the serum dilution of urea-treated samples where the ELISA absorbance was 0.5 divided by the dilution of untreated samples giving the same absorbance.
# [3] = test system: naïve OT-I (CD8+) T-cells; assay: Priming of naïve OT-I T-cells by particle-pulsed splenic DCs (CFSE dilution); assay type: cell-based, mice; settings: DCs pulsed with 10,000-fold higher doses of soluble OVA than the particle dose, with or without MPLA; not shown
# Procedure: Responses of naïve CD4^+ or CD8^+ T-cells transgenically expressing T cell receptors specific for OVA-derived peptides were assessed by in vitro co-culture of OT-II or OT-I primary T-cells with particle-pulsed DCs. Primary dendritic cells were isolated from spleens of C57B1/6 mice by digesting spleens with collagenase and isolating DCs using a CD11c^+ magnetic bead isolation kit (Miltenyi Biotec). In parallel, naïve CD4^+ T-cells or CD8+ T-cells were isolated from OT-II or OT-I TCR-transgenic mice, respectively (Jackson Laboratories), and labeled with CFSE to trace cell division following the manufacturer's instructions. OVA-loaded particles with post-inserted MPLA or soluble OVA/MPLA were added to splenic DCs (12,500 cells/well) at titrated cell:antigen ratios (starting from 40:1 particles:DC, corresponding to 6.2 μg particles), and incubated for 3 hr in a total volume of 150 μL/well at 37° C. and 5% CO2. CFSE-labeled OT-I or OT-II cells (50,000 cells/well) were then added to DCs in a volume of 50 μL complete RPMI media. This total culture volume of 200 μL/well was incubated for 3 days at 37° C. and 5% CO2 to allow proliferation of T-cells, and CFSE dilution was then measured by flow cytometry.
molecule,measurement,setting,value
"CCCCCCCCCCCCCCCCCCCCCCCCCC(=O)N[C@@H](CO[C@H]1O[C@H](CO)[C@H](O)[C@H](O)[C@H]1O)[C@H](O)[C@H](O)CCCCCCCCCCCCCC [αGC solution, α-galactosylceramide, reference compound]","IgG titers 14 days after a single immunization, αGC dose titration","[1]; BALB/c, 2 ng OVA on microparticles with 10 ng, 100 ng, or 1 μg αGC (on particles or in solution 10 min before at same site)",only a fraction of mice had detectable titers; also recorded: equally effective
B1,avidity: IgG binding following urea washes,[2],no binding
same,anti-OVA IgG titers,"[1]; BALB/c, 10 ng OVA s.c. prime, boost with same dose 3 weeks later, 1.3 μg MPLA and 600 ng αGC where used",only a subset of mice responded
same,time serum titers were maintained,"[1]; BALB/c, 10 ng OVA s.c., boost 3 weeks later",not sustained in a majority of the mice
same,OT-I proliferation,[3],minimal OT-I proliferation
B2,influence of SAT(PEG)4 modification on the protein's immunogenicity,[1]; data not shown,no significant influence
